Results as given in US20260098090A1.

Target: T1, IL-2Rbg on mouse splenocytes (NK cells, CD8+ T cells, Treg cells) (mouse) (UniProt P16297)
T1 sequence (looked up) 1: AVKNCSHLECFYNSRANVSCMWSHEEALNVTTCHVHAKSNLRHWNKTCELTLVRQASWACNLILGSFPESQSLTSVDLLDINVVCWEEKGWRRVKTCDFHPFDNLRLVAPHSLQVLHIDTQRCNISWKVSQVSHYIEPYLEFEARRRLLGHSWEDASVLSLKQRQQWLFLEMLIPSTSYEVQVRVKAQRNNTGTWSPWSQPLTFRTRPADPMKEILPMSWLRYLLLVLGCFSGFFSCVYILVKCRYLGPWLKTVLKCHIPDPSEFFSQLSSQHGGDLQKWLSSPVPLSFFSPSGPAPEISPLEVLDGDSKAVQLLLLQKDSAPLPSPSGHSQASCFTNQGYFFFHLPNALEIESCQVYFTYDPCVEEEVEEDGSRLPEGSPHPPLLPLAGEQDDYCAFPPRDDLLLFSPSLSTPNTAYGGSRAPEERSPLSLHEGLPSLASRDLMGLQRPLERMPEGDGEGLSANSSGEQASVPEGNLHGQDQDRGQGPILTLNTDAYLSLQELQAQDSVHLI
T1 sequence (looked up) 2: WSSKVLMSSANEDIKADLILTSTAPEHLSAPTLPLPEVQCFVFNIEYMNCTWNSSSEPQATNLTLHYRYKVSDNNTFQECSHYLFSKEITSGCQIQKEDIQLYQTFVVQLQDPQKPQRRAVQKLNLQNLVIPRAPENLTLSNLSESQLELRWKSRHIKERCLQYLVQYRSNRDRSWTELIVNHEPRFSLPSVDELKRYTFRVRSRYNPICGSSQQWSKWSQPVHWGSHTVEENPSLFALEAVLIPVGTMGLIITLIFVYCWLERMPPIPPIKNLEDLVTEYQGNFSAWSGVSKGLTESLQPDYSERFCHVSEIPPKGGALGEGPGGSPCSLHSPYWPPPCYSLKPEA
Assay: cell-based or functional assay

B1: CTRL-mIL2v2 (protein, part only; not given: control antibody chains and linker, not shown: small tags and cut ends)
heavy, part: APTSSSTSSSTAEAQQQQQQQQQQQQHLEQLLMDLQELLSRMENYRNLKLPEMLTAKFALPKQATELKDLQCLEDELGPLRHVLDLTQSKSFQLEDAENFISNIRVTVVKLKGSDNTFECQFDDESATVVDFLRRWIAFAQSIISTSPQ
- pSTAT5 staining of murine splenocytes, EC50 on CD8+ T cells: 26 nM
- pSTAT5 staining of murine splenocytes, EC50 on NK cells: 8.6 nM
- pSTAT5 staining of murine splenocytes, EC50 on Treg cells: 42.5 nM
